Results published in article PMC7201719.

Key:
[1] = target: Heat shock cognate 71 kDa protein (chicken (endogenous in DF-1)) (UniProt O73885)
[2] = target: Heat shock cognate 71 kDa protein (chicken (endogenous in DF-1)) (UniProt O73885); remark: listed apart in the source

Chain of UniProt O73885 (O73885 whole entry): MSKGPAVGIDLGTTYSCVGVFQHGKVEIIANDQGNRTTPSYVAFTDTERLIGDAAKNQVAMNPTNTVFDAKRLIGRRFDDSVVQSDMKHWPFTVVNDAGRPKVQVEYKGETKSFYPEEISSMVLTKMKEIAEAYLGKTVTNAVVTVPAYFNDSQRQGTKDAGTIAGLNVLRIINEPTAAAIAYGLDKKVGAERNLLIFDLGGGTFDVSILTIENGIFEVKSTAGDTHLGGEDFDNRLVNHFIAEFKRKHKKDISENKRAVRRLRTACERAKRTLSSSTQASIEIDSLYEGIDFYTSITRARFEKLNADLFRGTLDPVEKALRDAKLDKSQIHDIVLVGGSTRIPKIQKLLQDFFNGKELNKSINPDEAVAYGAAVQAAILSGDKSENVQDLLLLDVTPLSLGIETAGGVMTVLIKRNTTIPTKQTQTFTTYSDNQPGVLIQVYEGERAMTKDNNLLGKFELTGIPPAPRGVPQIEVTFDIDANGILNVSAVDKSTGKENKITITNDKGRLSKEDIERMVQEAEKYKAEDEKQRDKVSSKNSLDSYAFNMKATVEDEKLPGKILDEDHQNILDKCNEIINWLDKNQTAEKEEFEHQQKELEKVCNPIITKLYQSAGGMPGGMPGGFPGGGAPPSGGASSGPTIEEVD

**Q.** What does the source list for IBDV VP2 protein (natural protein)?
**A.** VP2/GAPDH by western blot in DF-1 cells pretreated with anti-HSC70 antibody at 25, 12.5 and 6.25 ug/mL and infected with IBDV (normal IgG 3.329, no antibody 3.345) [1]: 1.43 VP2/GAPDH; viral titer of IBDV in DF-1 cells pretreated with 5 uM of the HSC70 inhibitor VER155008, 24-72 h after infection (untreated control 3.15-7.23), whole IBDV virus (log10TCID50/mL) [2]: 0
